The record followed here is the supplement of paper PMC6755084.

B1: F1*; the commonest letter at each place (parent)
chain: GAGACCGCAACTGAAAAGTTGTTATCACTTGTCGTAAGACACTTTGGATGGGTTGAAGTTCTGCACGTAGAAGCAAAAGGC

The variants in the series derive from B1. Put plainly: fraction ligated after 30 min (ligated reads / total reads); higher = more ligase activity. The note with it: with F1*sub RNA substrate (template-directed ligation), 42 °C. The method in brief: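 Oligo-pool templates underwent PCR amplification, T7 transcription and gel purification to yield ribozyme variants. Gel-separated ligated and unligated bands were converted to complementary DNA with barcoded primers and sequenced on a MiSeq, keeping core bases of quality ≥20. The ratio of ligated reads to total reads gave the fraction ligated for every variant.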
Take GAGACCGCAACTGAAAAGTTGTTATCACTTGTCCTAAGACACTTTGGCTGGGTTGAAGTTCTGCACGTAGAAGCAAAAGGC [G34C A48C]: the fraction ligated amounted to 0.756.

In the case of GAGACCGCAACTGAAAAGTTGTTATCACTTGTCTTAAGACACTTTGGTTGGGTTGAAGTTCTGCACGTAGAAGCAAAAGGC [G34T A48T], the fraction ligated is 0.801.

With GAGACCGCAACTGAAAAGTTGTTATCACTTGTTGTAAGACACTTTGGGTGGGTTGAAGTTCTGCACGTAGAAGCAAAAGGC [C33T A48G], the fraction ligated is 0.814.

GAGACCGCAACTGAAAAGTTGTTATCTCTTGTCGAAAGACACTTTGGATGGGTTGAAGTTCTGCACGTAGAAGCAAAAGGC [A27T T35A]: the fraction ligated is 0.804.

Consider GAGACCGCAACTGAAAAGTTGTTATCACTTGTCGGAAGAAACTTTGGATGGGTTGAAGTTCTGCACGTAGAAGCAAAAGGC [T35G C40A], for which the fraction ligated turned out to be 0.838.

On to GAGACCGCAACTGAAAAGTTGTTATCACATGCCGTAAGACACTTTGGATGGGTTGAAGTTCTGCACGTAGAAGCAAAAGGC [T29A T32C], for which the fraction ligated is 0.774.

For GAGACCGCAACTGAAAAGTTGTTATCACTTGTCGTTAGACACTTTGGAGGGGTTGAAGTTCTGCACGTAGAAGCAAAAGGC [A36T T49G], the fraction ligated is 0.797.

In the case of GAGACCGCAACTGAAAAGTTGTTTTCACTTCTCGTAAGACACTTTGGATGGGTTGAAGTTCTGCACGTAGAAGCAAAAGGC [A24T G31C], the fraction ligated came out at 0.0424.

With GAGACCGCAACTGAAAAGTTGTTATCACTTGCCGTAAGACACTTTGGATGGGTTGAGGTTCTGCACGTAGAAGCAAAAGGC [T32C A57G], the fraction ligated amounted to 0.781.

As to GAGACCGCAACTGAAAAGTTGTTACCACCTGTCGTAAGACACTTTGGATGGGTTGAAGTTCTGCACGTAGAAGCAAAAGGC [T25C T29C], the fraction ligated came out at 0.781.

GAGACCGCAACTGAAAAGTTGTTATCACCTGTAGTAAGACACTTTGGATGGGTTGAAGTTCTGCACGTAGAAGCAAAAGGC [T29C C33A]: the fraction ligated was 0.824.

Take GAGACCGCAACTGAAAAGTTGTTATCACTTGTCGTCAGACTCTTTGGATGGGTTGAAGTTCTGCACGTAGAAGCAAAAGGC [A36C A41T]: the fraction ligated is 0.814.

In the case of GAGACCGCAACTGAAAAGTTGTTATCACTTGTCGTAAGACAGATTGGATGGGTTGAAGTTCTGCACGTAGAAGCAAAAGGC [C42G T43A], the fraction ligated was 0.856.

Take GAGACCGCAACTGAAAAGTTGTTATCACTTGTCGTACGACACTTTGGATGGGTTGATGTTCTGCACGTAGAAGCAAAAGGC [A37C A57T]: the fraction ligated was 0.831.

In the case of GAGACCGCAACTGAAAAGTTGTTAACACTTGTCGGAAGACACTTTGGATGGGTTGAAGTTCTGCACGTAGAAGCAAAAGGC [T25A T35G], the fraction ligated stood at 0.764.

With GAGACCGCAACTGAAAAGTTGTTATCACTGATCGTAAGACACTTTGGATGGGTTGAAGTTCTGCACGTAGAAGCAAAAGGC [T30G G31A], the fraction ligated is 0.853.

As to GAGACCGCAACTGAAAAGTTGTTATCACTTGTCGTAAGACAATTTGGATGGGTTCAAGTTCTGCACGTAGAAGCAAAAGGC [C42A G55C], the fraction ligated stood at 0.746.

For GAGACCGCAACTGAAAAGTTGTTATCACTTGTCGGAAGACACTTTGGATGGGTTGGAGTTCTGCACGTAGAAGCAAAAGGC [T35G A56G], the fraction ligated stood at 0.791.

As for GAGACCGCAACTGAAAAGTTGTTATCACTTCTCGTAAGACACTTTGGAGGGGTTGAAGTTCTGCACGTAGAAGCAAAAGGC [G31C T49G], the fraction ligated came out at 0.0675.

GAGACCGCAACTGAAAAGTTGTATTCACTTGTCGTAAGACACTTTGGATGGGTTGAAGTTCTGCACGTAGAAGCAAAAGGC [T23A A24T]: the fraction ligated was 0.781.

Turning to GAGACCGCAACTGAAAAGTTGTTATCACTTGTCGTAAGACACTGTGGATGGGTTGAAGTTCTGCACGTAGAAGCAAAAGGC [T44G], the fraction ligated was determined as 0.844.

As to GAGACCGCAACTGAAAAGTTGTTATCACTTGTCGTAAGGCACTTCGGATGGGTTGAAGTTCTGCACGTAGAAGCAAAAGGC [A39G T45C], the fraction ligated came to 0.792.

Consider GAGACCGCAACTGAAAAGTTGTTATCAGTTGTCGTAAGACACTTTCGATGGGTTGAAGTTCTGCACGTAGAAGCAAAAGGC [C28G G46C], for which the fraction ligated was 0.792.

Take GAGACCGCAACTGAAAAGTTGTTATCACATGTCGTAAGACAATTTGGATGGGTTGAAGTTCTGCACGTAGAAGCAAAAGGC [T29A C42A]: the fraction ligated stood at 0.86.

As for GAGACCGCAACTGAAAAGTTGTAATCACTTCTCGTAAGACACTTTGGATGGGTTGAAGTTCTGCACGTAGAAGCAAAAGGC [T23A G31C], the fraction ligated was 0.779.

Regarding GAGACCGCAACTGAAAAGTTGTTATCTCTTGGCGTAAGACACTTTGGATGGGTTGAAGTTCTGCACGTAGAAGCAAAAGGC [A27T T32G], the fraction ligated was found to be 0.838.

On to GAGACCGCAACTGAAAAGTTGTTATCACTTGTCGTAAGGCACTTTGTATGGGTTGAAGTTCTGCACGTAGAAGCAAAAGGC [A39G G47T], for which the fraction ligated came to 0.389.

Take GAGACCGCAACTGAAAAGTTGTTATCACTTGGCGTAAGTCACTTTGGATGGGTTGAAGTTCTGCACGTAGAAGCAAAAGGC [T32G A39T]: the fraction ligated was 0.862.

For the variant GAGACCGCAACTGAAAAGTTGTTTTCACTTGTCGTAAGACACGTTGGATGGGTTGAAGTTCTGCACGTAGAAGCAAAAGGC [A24T T43G], the fraction ligated came out at 0.708.

In the case of GAGACCGCAACTGAAAAGTTGTTATCACTAGTCGTAAGACACTTTGGATGGGTTGCAGTTCTGCACGTAGAAGCAAAAGGC [T30A A56C], the fraction ligated worked out at 0.773.

GAGACCGCAACTGAAAAGTTGTTATCACTTGTCGTAAGACATTCTGGATGGGTTGAAGTTCTGCACGTAGAAGCAAAAGGC [C42T T44C]: the fraction ligated amounted to 0.855.

Turning to GAGACCGCAACTGAAAAGTTGTTATCATTTGTTGTAAGACACTTTGGATGGGTTGAAGTTCTGCACGTAGAAGCAAAAGGC [C28T C33T], the fraction ligated is 0.822.

Take GAGACCGCAACTGAAAAGTTGTTATCACTTGTCGTAAGACACGTTGGATGGGTTTAAGTTCTGCACGTAGAAGCAAAAGGC [T43G G55T]: the fraction ligated was found to be 0.765.

Consider GAGACCGCAACTGAAAAGTTGTTATCAATTGTCGTAAGACACTTTGAATGGGTTGAAGTTCTGCACGTAGAAGCAAAAGGC [C28A G47A], for which the fraction ligated was found to be 0.75.
